Reference: patent US20090149339A1 (published 2009)
Ends that are not written are not given here. * marks the point of attachment. Biotin = O=C1N[C@H]2[C@H](CS[C@H]2CCCCC(=O)*)N1

B1: CC CKR-2 C-terminal PL peptide AA42L, biotinylated (peptide)
peptide: Biotin-GKGKSIGRAPEASLQDKEGA
B2: CC CKR-3 C-terminal PL peptide AA43L, biotinylated (peptide)
peptide: Biotin-LERTSSVSPSTAEPELSIVF

biological target: GST-AF6 PDZ domain fusion protein (af-6 protein AA985-1077; PDZ domain 1 of 1) (UniProt P08515 1-218 = GST); assay: A/G assays
Sequence (P08515 1-218, tags or fused parts left off): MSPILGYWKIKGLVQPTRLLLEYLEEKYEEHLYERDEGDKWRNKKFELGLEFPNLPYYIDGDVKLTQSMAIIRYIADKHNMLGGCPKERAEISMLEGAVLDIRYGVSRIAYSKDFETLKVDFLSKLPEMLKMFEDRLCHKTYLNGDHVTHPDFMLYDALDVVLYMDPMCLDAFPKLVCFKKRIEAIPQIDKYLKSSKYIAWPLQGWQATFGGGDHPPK

Binder | binding result
B1 | no binding
B2 | no binding

biological target: T1, GST-NeDLG PDZ domain fusion protein (presynaptic protein sao102, neuroendocrine-dlg; PDZ domains 1-2 of 3) (UniProt P08515 1-218 = GST); assay: A/G assays
T1 construct: also called NeDLG1
T1 sequence (P08515 1-218, tags or fused parts left off): as above

Binder | binding result
B1 | no binding
B2 | no binding

biological target: T2, GST-TAX43 PDZ domain fusion protein (human tax interaction protein 43 AA15-85; PDZ domain 1 of 1) (human, UniProt P08515 1-218 = GST); assay: A/G assays
T2 construct: also called TX 43
T2 sequence (P08515 1-218, tags or fused parts left off): as above

Binder | binding result
B1 | no binding
B2 | no binding

biological target: GST-NOS1 PDZ domain fusion protein (human neuronal nitric oxide synthase; PDZ domain 1 of 1) (human, UniProt P08515 1-218 = GST); assay: A/G assays
Sequence (P08515 1-218, tags or fused parts left off): as above

Binder | binding result
B1 | no binding
B2 | no binding

biological target: GST-PTN-4 PDZ domain fusion protein (protein-tyrosine phosphatase meg1 AA774-862; PDZ domain 1 of 1) (UniProt P08515 1-218 = GST); assay: A/G assays
Sequence (P08515 1-218, tags or fused parts left off): as above

Binder | binding result
B1 | no binding
B2 | no binding

biological target: GST-DVL1 PDZ domain fusion protein (human dishevelled segment polarity protein homolog AA248-340); PDZ domain … (human, UniProt P08515 1-218 = GST); assay: A/G assays
Sequence (P08515 1-218, tags or fused parts left off): as above

Binder | binding result
B1 | no binding
B2 | no binding

biological target: T3, GST-KIAA0303 PDZ domain fusion protein (KIAA0303 AA652-742; PDZ domain 1 of 1) (UniProt P08515 1-218 = GST); assay: A/G assays
T3 construct: also called K303
T3 sequence (P08515 1-218, tags or fused parts left off): as above

Binder | binding result
B1 | no binding
B2 | no binding

biological target: T4, GST-KIAA0316 PDZ domain fusion protein (KIAA0316 AA197-284; PDZ domain 1 of 1) (UniProt P08515 1-218 = GST); assay: A/G assays
T4 construct: also called K316

Binder | binding result
B1 | no binding
B2 | no binding

biological target: GST-MPP1 PDZ domain fusion protein (55 Kd erythrocyte membrane protein AA101-186; PDZ domain 1 of 1) (UniProt P08515 1-218 = GST); assay: A/G assays

Binder | binding result
B1 | no binding
B2 | no binding

biological target: GST-LIM PDZ domain fusion protein (Human LIM protein AA29-112; PDZ domain 1 of 1) (human, UniProt P08515 1-218 = GST); assay: A/G assays
Sequence (P08515 1-218, tags or fused parts left off): as above

Binder | binding result
B1 | no binding
B2 | no binding

biological target: GST-prIL16 PDZ domain fusion protein (putative interleukin 16 precursor AA170-383; PDZ domains 1-2 of 2) (UniProt P08515 1-218 = GST); assay: A/G assays
Sequence (P08515 1-218, tags or fused parts left off): as above

Binder | binding result
B1 | no binding
B2 | no binding

biological target: T5, GST-TAX2 PDZ domain fusion protein (human tax interaction protein 2 AA54-140; PDZ domain 1 of 1) (human, UniProt P08515 1-218 = GST); assay: A/G assays
T5 construct: also called TX 2
T5 sequence (P08515 1-218, tags or fused parts left off): as above

Binder | binding result
B1 | no binding
B2 | no binding

biological target: T6, GST-CBP PDZ domain fusion protein (Cytohesin binding protein HE AA85-175; PDZ domain 1 of 1) (UniProt P08515 1-218 = GST); assay: A/G assays
T6 construct: also called Prot
T6 sequence (P08515 1-218, tags or fused parts left off): as above

Binder | binding result
B1 | no binding
B2 | no binding

biological target: T7, GST-TAX33 PDZ domain fusion protein (tax interaction protein 33 AA73-162; PDZ domain 1 of 1) (UniProt P08515 1-218 = GST); assay: A/G assays
T7 construct: also called TX33
T7 sequence (P08515 1-218, tags or fused parts left off): as above

Binder | binding result
B1 | no binding
B2 | no binding

biological target: T8, GST-RGS12 PDZ domain fusion protein (human regulator of G-protein signalling 12 AA35-103; PDZ domain 1 of 1) (human, UniProt P08515 1-218 = GST); assay: A/G assays
T8 construct: also called RSG12
T8 sequence (P08515 1-218, tags or fused parts left off): as above

Binder | binding result
B1 | no binding
B2 | no binding

biological target: T9, GST-CASK PDZ domain fusion protein (CASK AA495-584; PDZ domain 1 of 1) (mouse, UniProt P08515 1-218 = GST); assay: A/G assays
T9 construct: also called mCASK
T9 sequence (P08515 1-218, tags or fused parts left off): as above

Binder | binding result
B1 | no binding
B2 | no binding

biological target: T10, GST-MPP2 PDZ domain fusion protein (maguk p55 subfamily member 2 (DLG2) AA185-273; PDZ domain 1 of 1) (UniProt P08515 1-218 = GST); assay: A/G assays
T10 construct: also called MMP2
T10 sequence (P08515 1-218, tags or fused parts left off): as above

Binder | binding result
B1 | no binding
B2 | no binding

biological target: T11, GST-41.8 kD PDZ domain fusion protein (hypothetical 41.8 kD protein AA4-85; PDZ domain 1 of 1) (UniProt P08515 1-218 = GST); assay: A/G assays
T11 construct: also called hypoth
T11 sequence (P08515 1-218, tags or fused parts left off): as above

Binder | binding result
B1 | no binding
B2 | no binding

biological target: GST-MINT3 PDZ domain fusion protein (human MINT3 AA11-52; PDZ domain 1 of 1) (human, UniProt P08515 1-218 = GST); assay: A/G assays

Binder | binding result
B1 | no binding
B2 | no binding

biological target: GST-LIMK2 PDZ domain fusion protein (human LIM domain kinase 2 AA185-275; PDZ domain 1 of 1) (human, UniProt P08515 1-218 = GST); assay: A/G assays
Sequence (P08515 1-218, tags or fused parts left off): as above

Binder | binding result
B1 | no binding
B2 | no binding

biological target: GST-PSD95 PDZ domain fusion protein (human post-synaptic density protein 95 AA387-724; PDZ domains 1-3 of 3) (human, UniProt P08515 1-218 = GST); assay: A/G assays
Sequence (P08515 1-218, tags or fused parts left off): as above

Binder | binding result
B1 | no binding
B2 | no binding

biological target: T12, GST-TAX40 PDZ domain fusion protein (human tax interaction protein 40 AA35-137; PDZ domain 1 of 1) (human, UniProt P08515 1-218 = GST); assay: A/G assays
T12 construct: also called TX 40
T12 sequence (P08515 1-218, tags or fused parts left off): as above

Binder | binding result
B1 | no binding
B2 | no binding

biological target: T13, GST-KIAA0559 PDZ domain fusion protein (KIAA0559 AA766-870; PDZ1 of 1) (UniProt P08515 1-218 = GST); assay: A/G assays
T13 construct: also called K559
T13 sequence (P08515 1-218, tags or fused parts left off): as above

Binder | binding result
B1 | no binding
B2 | no binding

biological target: GST-TIAM1 PDZ domain fusion protein (T-lymphoma invasion and metastasis inducing protein 1 AA1001-1088); PDZ 1 … (UniProt P08515 1-218 = GST); assay: A/G assays

Binder | binding result
B1 | no binding
B2 | no binding

biological target: T14, GST-SYN1a PDZ domain fusion protein (alpha1-syntrophin AA96-189; PDZ domain 1 of 1) (UniProt P08515 1-218 = GST); assay: A/G assays
T14 construct: also called SYN 1 alpha; SYNTR 1 alpha
T14 sequence (P08515 1-218, tags or fused parts left off): as above

Binder | binding result
B1 | no binding
B2 | no binding
